In patent US20230121197A1, “ANTIBODIES SPECIFICALLY BINDING THE CARBOXYMETHYLATED CATALYTIC SUBUNIT OF PROTEIN PHOSPHATASE 2A” (Medizinische Universität Wien, priority 2020, published 2023):

Assays:
[1] = target: PP2Ac C-terminal peptide L309, ac-…-OH (unmodified) (human); experiment: ELISA, peptide coated at 2 µg/ml, antibody 1 µg/ml
[2] = target: PP2Ac C-terminal peptide meL309, ac-…-CH3 (α-carboxymethylated) (human); experiment: ELISA, peptide coated at 2 µg/ml, antibody 1 µg/ml, normalized, N=4
[3] = target: PP2Ac C-terminal peptide pT304-meL309, ac-HVTRRpTPDYFL-CH3 (human); experiment: as above
[4] = target: PP2Ac C-terminal peptide meL309, ac-…-CH3 (α-carboxymethylated) (human); experiment: ELISA, peptide coated at 2 µg/ml, antibody 1 µg/ml, normalized, N=3
[5] = target: PP2Ac C-terminal peptide pY307-meL309, ac-HVTRRTPDpYFL-CH3 (human); experiment: as above
[6] = target: PP2Ac C-terminal peptide pY307-meL309, ac-HVTRRTPDpYFL-CH3 (human); experiment: ELISA, 4-fold dilution series of coated peptide, normalized, N=3
[7] = system: α-carboxymethylation of PP2Ac; experiment: H358 xenograft tumors, single dose DT-061 time-course: methyl-PP2Ac by IHC and western blot with 7C10-C5; assay type: in vivo, Balb/c nu/nu mice
Procedure: Next, the immunohistochemical analysis of xenograft tumors was performed. In brief, five micron sections from formalin-fixed paraffin-embedded (FFPE) specimens were deparaffinized in Histo-Clear and ethanol, exposed to 0.3% hydrogen peroxide to block endogenous peroxidase activity, and incubated for antigen retrieval with a citrate-based antigen unmasking solution (H-3300, Vector Laboratories) in a pressure cooker. Tumor sections were blocked with Mouse Ig Blocking Reagent (BMK-2202, Vector Laboratories), and incubated with anti-carboxymethyl PP2Ac specific antibody (7C10-C5) or an antibody recognizing total PP2Ac (ab106262) at 4° C. for two nights. Washes were performed in PBS. Slides were subsequently developed using secondary anti-mouse immunoglobulins/HRP (K1497, Agilent), DAB peroxidase substrate as the chromagen, and hematoxylin for counterstaining nuclei. Slides were sealed, and randomized for subsequent blinded review. Two independent researchers scored the level of carboxymethylated PP2Ac staining (with 7C10-C5) in one section per tumor (min. 6 tumors per treatment/control group). […] Scores from 0-2 are considered low staining, 2-4 as moderate, and 4-6 as high intensity staining. Based on these scores the data was plotted as the percentage of slides from each time point that fell into each group (FIG. 14I).

c-MYC = experiment: H358 xenograft tumors, single dose DT-061 time-course: c-MYC IHC; assay type: in vivo, Balb/c nu/nu mice; conditions: single dose DT-061
[8] = mouse, in vivo, 5 mg/kg
[9] = system: LNCaP LCMT1 knockdown lines; experiment: Colony formation and cell viability (cell titer glo) in LCMT1 knockdown prostate cancer cells; assay type: cell-based, human; conditions: colony formation (20 uM, 10-12 days) and cell viability (96 hours)

rabbit monoclonal antibody E155 (Abcam #ab32104 lot GR17965-24)
fold higher ELISA signal intensity than with the α-carboxymethylated counterpart (meL309) [1]: 4.7 to 8.2 fold
fold-change of ELISA signal, L309 over meL309 [2]: 4.65 fold
fold-change of ELISA signal, L309 over pT304-meL309 [3]: 50 fold
fold-change of ELISA signal, meL309 over pT304-meL309 [3]: 10.7 fold
fold-change of ELISA signal, pT304-L309 over pT304-meL309 [3]: 36.1 fold
fold-change of ELISA signal, L309 over meL309 [4]: 8.2 fold
fold-change of ELISA signal, pY307-L309 over pY307-meL309 [5]: 2.5 fold
fold-change of ELISA signal, pY307-meL309 over meL309 [5]: 3.36 fold
EC50 (read off the curve) [6]: 0.3 mg/L

O=S(=O)(N[C@@H]1CCC[C@H](N2c3ccccc3Oc3ccccc32)[C@H]1O)c1ccc(OC(F)(F)F)cc1 [DT-061]
return of α-carboxymethylated PP2Ac to basal levels post treatment ([7]; single dose DT-061): ≤ 12 h
α-carboxymethylated PP2Ac in xenograft tumors after treatment ([7]; single dose DT-061 (5 mg/kg), IHC with 7C10-C5): increase in α-carboxymethylated PP2Ac at early time points (one, two, and three hours)
return of c-MYC to basal levels (c-MYC): ≤ 6 h
c-MYC in xenograft tumors after treatment (c-MYC; IHC): significant decrease of c-MYC at early time points (one, two, and three hours)
half-life obtained from serum [8]: 6.3 h

CNC(=O)c1ccc(N2C(=S)N(c3ccc(C#N)c(C(F)(F)F)c3)C(=O)C2(C)C)cc1F [enzalutamide]
effect of LCMT1 knockdown on response to enzalutamide [9]: decreased sensitivity
